From patent US20220259297A1 (ACCELERON PHARMA, published 2022) come the findings set out here.

What all share (assay): SPR (Biacore); receptor-Fc captured by anti-Fc antibody, ligand injected
For orientation: In SPR one partner is held on a chip, and binding of the other changes the refractive index at the surface.

The target in one experiment is T1, activin A (UniProt P08476 311-426).
T1 sequence (looked up): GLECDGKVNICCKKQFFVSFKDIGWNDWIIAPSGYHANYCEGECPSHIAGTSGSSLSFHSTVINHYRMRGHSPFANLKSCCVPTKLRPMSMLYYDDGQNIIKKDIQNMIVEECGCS
The protocol: (§1) A Biacore™-based binding assay was used to compare ligand binding selectivity of an exemplary ALK4-Fc:ActRIIB-Fc heterodimeric complex as described above with the binding selectivity of ActRIIB-Fc and ALK4-Fc homodimer complexes. The ALK4-Fc:ActRIIB-Fc heterodimer, ActRIIB-Fc homodimer, and ALK4-Fc homodimer were independently captured onto the system using an anti-Fc antibody. Ligands were injected and allowed to flow over the captured receptor protein. Results are summarized in the Table 5 below, in which ligand off-rates (kd) most indicative of effective ligand traps are denoted by gray shading.

Another experiment has as its target T2, BMP6 (UniProt P22004 382-513, limits assumed).
T2 sequence (looked up): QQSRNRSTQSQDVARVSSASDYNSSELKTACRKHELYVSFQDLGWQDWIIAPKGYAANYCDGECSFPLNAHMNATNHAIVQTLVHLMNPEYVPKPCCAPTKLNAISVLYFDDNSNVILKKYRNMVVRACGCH
The protocol: as §1

The target in another experiment is T3, GDF11 (UniProt O95390 299-407).
T3 construct: also called BMP11
T3 sequence (looked up): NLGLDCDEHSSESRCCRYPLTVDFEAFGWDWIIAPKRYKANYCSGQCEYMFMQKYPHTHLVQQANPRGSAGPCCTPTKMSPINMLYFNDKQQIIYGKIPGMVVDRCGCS
As for the experimental part: as §1

The target of another experiment is T4, GDF8 (UniProt O14793 267-375).
T4 construct: also called myostatin
T4 sequence (looked up): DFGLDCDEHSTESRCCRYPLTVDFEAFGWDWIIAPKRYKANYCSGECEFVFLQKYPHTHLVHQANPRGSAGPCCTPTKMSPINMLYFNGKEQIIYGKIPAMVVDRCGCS
As for the experimental part: as §1

The target in another experiment is T5, GDF3 (UniProt Q9NR23 251-364).
T5 sequence (looked up): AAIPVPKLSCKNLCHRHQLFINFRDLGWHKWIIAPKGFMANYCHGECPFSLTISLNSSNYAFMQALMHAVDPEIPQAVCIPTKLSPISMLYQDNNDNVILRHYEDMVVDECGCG
The protocol: as §1

The target in another experiment is T6, BMP10 (UniProt O95393 317-424).
T6 sequence (looked up): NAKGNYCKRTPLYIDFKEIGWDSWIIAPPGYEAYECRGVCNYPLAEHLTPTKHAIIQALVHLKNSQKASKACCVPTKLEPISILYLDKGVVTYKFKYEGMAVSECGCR
As for the experimental part:
as §1

The target in the next experiment is T7, activin B (UniProt P09529 293-407).
T7 sequence (looked up): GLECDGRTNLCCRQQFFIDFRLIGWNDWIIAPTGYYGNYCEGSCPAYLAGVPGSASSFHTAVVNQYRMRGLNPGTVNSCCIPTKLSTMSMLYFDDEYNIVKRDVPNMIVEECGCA
As for the experimental part:
as §1

B1: ALK4-Fc:ActRIIB-Fc heterodimer (Fc fusion)
chain 1: SGPRGVQALLCACTSCLQANYTCETDGACMVSIFNLDGMEHHVRTCIPKVELVPAGKPFYCLSSEDLRNTHCCYTDYCNRIDLRVPSGHLKEPEHPSMWGPVETGGGTHTCPPCPAPELLGGPSVFLFPPKPKDTLMISRTPEVTCVVVDVSHEDPEVKFNWYVDGVEVHNAKTKPREEQYNSTYRVVSVLTVLHQDWLNGKEYKCKVSNKALPAPIEKTISKAKGQPREPQVYTLPPSREEMTKNQVSLTCLVKGFYPSDIAVEWESNGQPENNYDTTPPVLDSDGSFFLYSDLTVDKSRWQQGNVFSCSVMHEALHNHYTQKSLSLSPG
chain 2: GRGEAETRECIYYNANWELERTNQSGLERCEGEQDKRLHCYASWRNSSGTIELVKKGCWLDDFNCYDRQECVATEENPQVYFCCCEGNFCNERFTHLPEAGGPEVTYEPPPTAPTGGGTHTCPPCPAPELLGGPSVFLFPPKPKDTLMISRTPEVTCVVVDVSHEDPEVKFNWYVDGVEVHNAKTKPREEQYNSTYRVVSVLTVLHQDWLNGKEYKCKVSNKALPAPIEKTISKAKGQPREPQVYTLPPSRKEMTKNQVSLTCLVKGFYPSDIAVEWESNGQPENNYKTTPPVLKSDGSFFLYSKLTVDKSRWQQGNVFSCSVMHEALHNHYTQKSLSLSPGK
notes: The C-terminal lysine is optional; also called ALK4-Fc:ActRIIB-Fc heterodimeric complex; ALK4:ActRIIB heterodimer
Broadly, the koff is the first-order rate constant of dissociation. Read a low koff as slow dissociation. In general, kon refers to the second-order rate constant of association. Higher therefore signals fast association. In the case of B1, the koff with activin A was determined as 0.00015 s⁻¹; in the experiment with BMP6, 0.0055 s⁻¹; in the experiment with GDF11, 0.00011 s⁻¹; in the experiment with GDF8, 0.00021 s⁻¹; with GDF3, 0.017 s⁻¹; in the experiment with BMP10, 0.0041 s⁻¹. The molecule further yielded an off-rate (koff) with activin B of 4e-05 s⁻¹. Further, the kon was 1.3e+07 M⁻¹ s⁻¹ in the experiment with activin A; 2e+06 M⁻¹ s⁻¹ with BMP6; 3.8e+07 M⁻¹ s⁻¹ with GDF11; 390000 M⁻¹ s⁻¹ in the experiment with GDF8; 3.4e+06 M⁻¹ s⁻¹ with GDF3; 5.6e+07 M⁻¹ s⁻¹ with BMP10. The molecule further showed an on-rate constant (kon) with activin B of 7.1e+06 M⁻¹ s⁻¹.
